Target: purified recombinant histone H3 protein (Active Motif C110A), PARylated in vitro by PARP1 (UniProt P68431)

- decrease in H3K27me3 ELISA after in vitro methylation by the EZH2/PRC2 complex of PARylated against unmodified recombinant histone H3 (PARP1 removed beforehand): 30%
Substance: human EZH2/EED/SUZ12/RbAp48/AEBP2 Complex (from UniProt Q15910 1-746; O75530 1-441; Q15022 1-739; Q09028 1-425; Q6ZN18 1-517)

Reference: publication PMC5828221
